Experiment [1] deals with wild-type gC1qR (human) (UniProt Q07021). As to the kind of experiment: SEC; analytical gel filtration (Superdex 200 Increase 10/300 GL) of purified FXII, wild-type gC1qR and gC1qR/FXII in a Zn++-containing buffer, compared to size standards. A general note: SEC sorts molecules by how far they enter the pores of the column.
The target of experiment [2] is gC1qR-avi, enzymatically biotinylated (human) (UniProt Q07021). Kind of experiment: SPR; enzymatically biotinylated gC1qR-avi or gC1qR-DD-avi captured to 100 RU on an SA chip; FXII or FXIIa injected 1.6 to 800 nM; 25°C, HBS-T with 50 µM ZnCl2; ligand heterogeneity model with two independent binding sites; apparent.
Experiment [3] concerns the target gC1qR-DD-avi, enzymatically biotinylated (human) (UniProt Q07021). Described as above.
Experiment [4] deals with HKH-20 HKH-20 peptide (Homo sapiens) (UniProt P01042). Kind of experiment: ITC. To be noted: cited from earlier work.
Experiment [5] concerns the target gC1qR-D1 (human) (UniProt Q07021). As to the kind of experiment: SEC; gel filtration on Superdex S200 in PBS (pH 7.4); solution behaviour shown in Figure S1 (not shown to me).
In experiment [6] the target is gC1qR-D1 (loop 1 deletion mutant) (human) (UniProt Q07021). As to the kind of experiment: SEC; analytical gel filtration of purified gC1qR proteins on Superdex 200 Increase 10/300 GL, compared to size standards (670, 66, 13 kDa).
Experiment [7] deals with gC1qR-D2 (human) (UniProt Q07021). As to the kind of experiment: SEC; gel filtration on Superdex S200 in PBS (pH 7.4); solution behaviour shown in Figure S1 (not shown to me).
Experiment [8] concerns the target gC1qR-D2 (loop 2 deletion mutant) (human) (UniProt Q07021). As to the kind of experiment: SEC; analytical gel filtration of purified gC1qR proteins on Superdex 200 Increase 10/300 GL, compared to size standards (670, 66, 13 kDa).
The target in experiment [9] is gC1qR-DD (double loop deletion mutant) (human) (UniProt Q07021). The description is as above.
The target of another experiment is gC1qR-DD (human) (UniProt Q07021). As to the kind of experiment: SEC; gel filtration on Superdex S200 in PBS (pH 7.4); solution behaviour shown in Figure S1 (not shown to me).
The target of experiment [10] is wild-type gC1qR (human) (UniProt Q07021). As to the kind of experiment: SEC; analytical gel filtration of purified gC1qR proteins on Superdex 200 Increase 10/300 GL, compared to size standards (670, 66, 13 kDa).
For experiment [11], the target named is T1, wild-type gC1qR (residues 74-282) (human, UniProt Q07021 74-282).
T1 construct: gC1qR/C1qBP/HABP-1, human, residues 74-282 (the mature form of the 282-residue pre-pro protein); Expressed from vector pT7HMT; the tag was removed with TEV protease; also called C1qBP; HABP-1; source: E. coli BL21(DE3), purified (NiNTA, TEV digestion, gel filtration Superdex S200)
T1 sequence (looked up): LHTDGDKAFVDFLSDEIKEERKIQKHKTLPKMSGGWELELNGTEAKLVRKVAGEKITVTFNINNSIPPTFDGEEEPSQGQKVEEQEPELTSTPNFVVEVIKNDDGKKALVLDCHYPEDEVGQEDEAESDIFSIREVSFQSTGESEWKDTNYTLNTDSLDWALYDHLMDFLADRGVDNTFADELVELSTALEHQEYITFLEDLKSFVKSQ
Kind of experiment: SEC; gel filtration on Superdex S200 in PBS (pH 7.4); solution behaviour shown in Figure S1 (not shown to me).

Experiment [12] deals with gC1qR-D2 (human) (UniProt Q07021). Kind of experiment: SPR; gC1qR proteins amine-coupled to a CMD200M chip (gC1qR 361 RU, D1 487 RU, D2 360 RU, DD 874 RU); HKH-20 injected 46.9 nM to 10 µM; 25°C, HBS-T (20 mM HEPES pH 7.4, 140 mM NaCl, 0.005% Tween-20); affinity (dose/response) model, apparent KD.
For experiment [13], the target named is gC1qR-D1 (human) (UniProt Q07021). Described as above.
The target of experiment [14] is T1, wild-type gC1qR (residues 74-282). The description is as above. The settings on record: both partners purified.

Take Factor XII (native) (natural protein): in the experiment with wild-type gC1qR (human) [1], the stoichiometry N (FXII monomer per gC1qR trimer) amounted to 1.
As to activated Factor XIIa (FXIIa) (enzyme), in [2], the KD-1 (first binding site) was found to be 0.27 nM, the KD-2 (second binding site) was determined as 134 nM, the ka-1 (first binding site) turned out to be 408000 M⁻¹ s⁻¹ and the ka-2 (second binding site) worked out at 48200 M⁻¹ s⁻¹. Further, in experiment [2], the kd-1 (first binding site) stood at 9e-05 s⁻¹ and the kd-2 (second binding site) is 0.0063 s⁻¹. Further, in [3], the KD-1 (first binding site) was determined as 0.12 nM, the KD-2 (second binding site) is 178 nM, the ka-1 (first binding site) was found to be 1.13e+06 M⁻¹ s⁻¹ and the ka-2 (second binding site) came out at 63700 M⁻¹ s⁻¹. Further, in experiment [3], the kd-1 (first binding site) stood at 0.000147 s⁻¹ and the kd-2 (second binding site) stood at 0.0112 s⁻¹.
On to gC1qR (from UniProt Q07021), for which the Kd in experiment [4] was 6300 nM.
A word on the stoichiometry N: it is the number of molecules, sites or subunits per partner or assembly. In the experiment with gC1qR-D1 (human) [5], “gC1qR-D1 (from UniProt Q07021 74-138; Q07021 164-282) (natural protein)” displayed a stoichiometry N of 3.
For “gC1qR-D1 (loop 1 deletion mutant) (from UniProt Q07021 74-282) (domain or fragment)”, in experiment [6], the stoichiometry N was determined as 3.
Regarding “gC1qR-D2 (from UniProt Q07021 74-189; Q07021 202-282) (natural protein)”, in the experiment with gC1qR-D2 (human) [7], the stoichiometry N is 3.
In the case of “gC1qR-D2 (loop 2 deletion mutant) (from UniProt Q07021 74-282) (domain or fragment)”, the stoichiometry N in [8] stood at 3.
“gC1qR-DD (double loop deletion mutant) (from UniProt Q07021 74-282) (domain or fragment)”: the stoichiometry N in experiment [9] came out at 3.
Molecule “gC1qR-DD (from UniProt Q07021 74-138; Q07021 164-189; Q07021 202-282) (natural protein)” returned a stoichiometry N with gC1qR-DD (human) of 3.
Turning to “native coagulation factor XII (FXII) (natural protein)”, in experiment [2], the KD-1 (first binding site) turned out to be 4.85 nM, the KD-2 (second binding site) was 97.6 nM, the ka-1 (first binding site) stood at 676000 M⁻¹ s⁻¹ and the ka-2 (second binding site) came to 23700 M⁻¹ s⁻¹. In experiment [2], the kd-1 (first binding site) came out at 0.00316 s⁻¹ and the kd-2 (second binding site) came to 0.0023 s⁻¹. In experiment [3], the KD-1 (first binding site) amounted to 1.69 nM, the KD-2 (second binding site) was 26.4 nM, the ka-1 (first binding site) was 674000 M⁻¹ s⁻¹ and the ka-2 (second binding site) stood at 34800 M⁻¹ s⁻¹. For the same molecule, in experiment [3], the kd-1 (first binding site) stood at 0.00114 s⁻¹ and the kd-2 (second binding site) was 0.00091 s⁻¹.
Molecule “wild-type gC1qR (from UniProt Q07021 74-282) (domain or fragment; other documents disagree on this pair)” showed a stoichiometry N with wild-type gC1qR (human) [10] of 3.
In experiment [11], “wild-type gC1qR (residues 74-282) (from UniProt Q07021 74-282) (natural protein; other documents disagree on this pair)” gave a stoichiometry N of 3.

B1: peptide HKH-20 (peptide)
peptide: HKHGHGHGKHKNKGKKNGKH
notes: The discussion speaks of peptides derived from HMWK residues 493-516 in general; also called HKH-20 peptide; source: synthetic peptide (GenScript)
For B1, the figures for the Kd (with gC1qR-D2 (human) [12]; with gC1qR-D1 (human) [13]; in experiment [14]) were 10000 nM, 10000 nM and 8700 nM, respectively.

The record behind these values is article PMC9294231, “gC1qR/C1qBP/HABP-1: Structural Analysis of the Trimeric Core Region, Interactions With a Novel Panel of Monoclonal Antibodies, and Their Influence on Binding to FXII” (Frontiers in Immunology, 2022).
